This note sets out measurements from patent US12534531 (MacroGenics, dated 2026).

Test [1] has as its target soluble cynomolgus monkey PD-1 (scyno PD-1 hFc) cleaved to remove Fc portion (cynomolgus monkey, UniProt B0LAJ3 25-170). Nature of the test: Biacore, mAb captured on F(ab)2 goat anti-human Fc, analyte scyno PD-1 hFc cleaved of Fc. For orientation: SPR reads the build-up and loss of mass on a sensor chip optically.
For test [2], the target named is T1, human PD-1 expressed on the surface of cells (NSO cells expressing human PD-1; MNFAT-luc2/PD-1 Jurkat cells) (human, UniProt Q15116 21-288).
T1 construct: also called cell surface PD-1; PDCD1 transfected NSO cells expressing PD-1
Nature of the test: FACS: inhibition of sPD-L1 binding to PD-1 on NSO cells; SM; SD 0.2337. On the technique in general: Flow cytometry measures light scatter and fluorescence of single cells or particles in a stream.

The target in test [3] is T1, human PD-1 expressed on the surface of …. Nature of the test: FACS blocking on NSO cells expressing human PD-1, 1:4 dilutions, MFI; blocked ligand: biotinylated sPD-L2, streptavidin-PE.
Test [4] shares this target. Nature of the test: FACS: inhibition of sPD-L2 binding to PD-1 on NSO cells; SM; SD 0.2893.
Test [5] shares this target. Nature of the test: FACS blocking on NSO cells expressing human PD-1, 1:4 dilutions, MFI; blocked ligand: biotinylated sPD-L1, streptavidin-PE.
For test [6] the target is unchanged. Nature of the test: FACS saturation binding on NSO cells expressing human PD-1, goat anti-human-APC, MFI, 1:4 dilutions.
In test [7] the target is T2, soluble human PD-1 (the extracellular domain of human PD-1 fused to a His tag) (human, UniProt Q15116 25-170).
T2 construct: also called shPD-1 His; shPD-1-His; not shown: His tag
Nature of the test: Biacore, mAb captured on F(ab)2 goat anti-human Fc, analyte shPD-1 His.

In test [8] the target is T1, human PD-1 expressed on the surface of …. Nature of the test: FACS saturation binding to NSO cells expressing PD-1; SM; SD 0.3958.
Test [9] shares this target. Nature of the test: FACS saturation binding to NSO cells expressing PD-1; SM; SD 0.8112.
Test [10] shares this target. Nature of the test: FACS: inhibition of sPD-L1 binding to PD-1 on NSO cells; SM; SD 0.1668.
Test [11] has as its target T3, PD-1 on the surface of CD4+ and CD8+ T cells of cynomolgus monkeys (cynomolgus monkey, UniProt B0LAJ3 25-288).
T3 construct: In vivo occupancy read by flow cytometry; also called PD-1+/CD4+ and PD-1+/CD8+ cells
Nature of the test: flow cytometry competition with labeled hPD-1 mAb 7 (1.2) IgG4 (P) on blood of cynomolgus monkeys given 10 mg/kg.

Test [12] has as its target T1, human PD-1 expressed on the surface of …. Nature of the test: FACS: inhibition of sPD-L2 binding to PD-1 on NSO cells; SM; SD 0.2563.
The target is the same in test [13]. Nature of the test: FACS: inhibition of sPD-L2 binding to PD-1 on NSO cells; SM; SD 0.4285.
Test [14] deals with T4, biotinylated-soluble human LAG-3-Fc fusion protein (human, UniProt P18627 23-450, biotinylated (site not stated)).
T4 construct: whole entry named; also called shLAG-3; shLAG-3-Fc; not shown: Fc
T4 sequence: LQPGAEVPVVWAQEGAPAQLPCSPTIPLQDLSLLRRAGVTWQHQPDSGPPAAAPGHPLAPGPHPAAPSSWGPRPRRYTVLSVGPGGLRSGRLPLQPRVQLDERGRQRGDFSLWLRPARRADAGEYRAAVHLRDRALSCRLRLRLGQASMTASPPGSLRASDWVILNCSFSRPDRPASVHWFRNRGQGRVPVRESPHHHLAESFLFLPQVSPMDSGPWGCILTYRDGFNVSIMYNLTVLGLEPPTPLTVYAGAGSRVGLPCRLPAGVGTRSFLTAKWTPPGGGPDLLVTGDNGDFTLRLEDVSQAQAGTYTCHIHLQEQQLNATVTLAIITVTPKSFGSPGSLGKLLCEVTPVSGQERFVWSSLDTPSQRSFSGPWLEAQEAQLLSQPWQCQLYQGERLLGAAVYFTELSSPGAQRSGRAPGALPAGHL
Nature of the test: FACS: inhibition of shLAG-3-Fc binding to MHC II on Daudi cells (column head prints EC50); SM; SD 1.6465.

For test [15], the target named is T1, human PD-1 expressed on the surface of …. Nature of the test: FACS saturation binding to NSO cells expressing PD-1; SM; SD 0.4324.
For test [16] the target is unchanged. Nature of the test: FACS: inhibition of sPD-L1 binding to PD-1 on NSO cells; SM; SD 0.1485.
Test [17] has as its target T5, human LAG-3 expressed on NSO cells (human, UniProt P18627 29-525).
T5 sequence: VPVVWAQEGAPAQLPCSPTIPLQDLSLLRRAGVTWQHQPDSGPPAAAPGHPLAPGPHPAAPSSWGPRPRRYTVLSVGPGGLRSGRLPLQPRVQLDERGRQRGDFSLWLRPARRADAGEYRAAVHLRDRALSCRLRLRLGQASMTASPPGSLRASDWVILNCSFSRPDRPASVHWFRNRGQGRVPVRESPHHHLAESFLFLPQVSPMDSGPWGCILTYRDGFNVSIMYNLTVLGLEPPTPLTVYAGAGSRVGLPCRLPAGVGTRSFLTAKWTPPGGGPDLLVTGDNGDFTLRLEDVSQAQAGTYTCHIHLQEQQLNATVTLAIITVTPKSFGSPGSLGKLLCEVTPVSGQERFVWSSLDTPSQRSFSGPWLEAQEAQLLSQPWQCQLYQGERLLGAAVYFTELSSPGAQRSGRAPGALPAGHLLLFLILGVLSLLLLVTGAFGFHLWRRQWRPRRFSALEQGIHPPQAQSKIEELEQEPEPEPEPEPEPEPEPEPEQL
Nature of the test: FACS saturation binding to NSO cells expressing LAG-3; SM; SD 0.2231.

Where only a bound is given, the exact number is not on record here.

B1: hPD-1 mAb 7 (1.2) IgG1 (AA) (antibody)
heavy: not shown
light: EIVLTQSPATLSLSPGERATLSCRASESVDNYGMSFMNWFQQKPGQPPKLLIHAASNQGSGVPSRFSGSGSGTDFTLTISSLEPEDFAVYFCQQSKEVPYTFGGGTKVEIKRTVAAPSVFIFPPSDEQLKSGTASVVCLLNNFYPREAKVQWKVDNALQSGNSQESVTEQDSKDSTYSLSSTLTLSKADYEKHKVYACEVTHQGLSSPVTKSFNRGEC
notes: also called h1PD-1 mAb 7(1.2) IgG1 (AA)
Consider B1, for which the Kd in test [1] turned out to be 4.9 nM; in test [7] it was 1.5 nM. Further, the IC50 came out at 732 nM in test [2] and 977 nM in test [4]. The “IC50 (read off the curve)” value in [3] is ~0.02 ug/test; in [5], ~0.01 ug/test. Further, in test [6], the “EC50 (read off the curve)” value was ~0.08 µg/mL. The molecule further registered an EC50 in [8] of 1090 nM.

B2: hPD-1 mAb 7 (1.2) IgG4 (P) (antibody)
heavy: not shown
light: EIVLTQSPATLSLSPGERATLSCRASESVDNYGMSFMNWFQQKPGQPPKLLIHAASNQGSGVPSRFSGSGSGTDFTLTISSLEPEDFAVYFCQQSKEVPYTFGGGTKVEIKRTVAAPSVFIFPPSDEQLKSGTASVVCLLNNFYPREAKVQWKVDNALQSGNSQESVTEQDSKDSTYSLSSTLTLSKADYEKHKVYACEVTHQGLSSPVTKSFNRGEC
notes: also called MGD012
For B2, the Kd amounted to 4.6 nM in test [1] and 1.5 nM in test [7]. The “IC50 (read off the curve)” value was ~0.02 ug/test in test [3] and ~0.01 ug/test in test [5]. Also, the 50% effective concentration (EC50) in [9] stood at 1210 nM. The IC50 is 519 nM in test [10] and 1040 nM in [12]. The “EC50 (read off the curve)” value in test [6] was ~0.1 µg/mL. Further, the “PD-1 binding on CD4+ and CD8+ T cells (% bound, in vivo)” value in [11] is ≥ 80%.

B3: DART A (bispecific antibody, human IgG4 S228P)
chain 1: DIVMTQTPLSLSVTPGQPASISCKSSQSLLHSDAKTYLNWLLQKPGQPPERLIYLVSELDSGVPDRFSGSGSGTDFTLKISRVEAEDVGVYYCWQGTHFPYTFGGGTKVEIKGGGSGGGGQVQLVQSGAEVKKPGASVKVSCKASGYSFTSYWMNWVRQAPGQGLEWIGVIHPSDSETWLDQKFKDRVTITVDKSTSTAYMELSSLRSEDTAVYYCAREHYGTSPFAYWGQGTLVTVSSGGCGGGEVAACEKEVAALEKEVAALEKEVAALEKESKYGPPCPPCPAPEFLGGPSVFLFPPKPKDTLYITREPEVTCVVVDVSQEDPEVQFNWYVDGVEVHNAKTKPREEQFNSTYRVVSVLTVLHQDWLNGKEYKCKVSNKGLPSSIEKTISKAKGQPREPQVYTLPPSQEEMTKNQVSLTCLVKGFYPSDIAVEWESNGQPENNYKTTPPVLDSDGSFFLYSRLTVDKSRWQEGNVFSCSVMHEALHNHYTQKSLSLSLG
chain 2: EIVLTQSPATLSLSPGERATLSCRASESVDNYGMSFMNWFQQKPGQPPKLLIHAASNQGSGVPSRFSGSGSGTDFTLTISSLEPEDFAVYFCQQSKEVPYTFGGGTKVEIKGGGSGGGGQVQLVQSGAEVKKPGASVKVSCKASGYTFTNYGMNWVRQAPGQGLEWMGWINTYTGESTYADDFEGRFVFSMDTSASTAYLQISSLKAEDTAVYYCARESLYDYYSMDYWGQGTTVTVSSGGCGGGKVAACKEKVAALKEKVAALKEKVAALKE
B3: the values for the IC50 in [13], in test [14] and in test [16] were 1630 nM, 1380 nM and 964 nM, respectively. For the same molecule, the results for the EC50 in test [15] and in test [17] were 1930 nM and 840 nM, respectively.

As a reminder, the Kd is a measure of binding affinity in units of concentration. As a reminder, the IC50 is the concentration at which inhibition is half-maximal. What is called EC50 (read off the curve) is the concentration needed to bring the measured effect to its halfway point. Broadly, the EC50 is the concentration at which the effect is half-maximal.
